According to US20180325836A1, “ULTRASONIC TRANSDUCERS SUITABLE FOR ULTRASONIC DRUG DELIVERY VIA A SYSTEM, WHICH IS PORTABLE AND WEARABLE BY THE PATIENT” (BKR IP Holdco LLC, priority 2015, published 2018):

Columns and labels:
[1] = Drug survivability after ultrasonic exposure (HPLC analysis of insulin); assay type: physicochemical
Description: Since the transducers of this invention are designed primarily for application in a drug delivery system the Applicant deemed it necessary to test the effect of the ultrasonic signal upon an active pharmaceutical substance. High intensity and high frequency ultrasound is theorized to be capable of inducing a cavitation effect within a drug, leading to an increase in temperature and a degradation of the drug molecule. For the following experiment Insulin (Humulin Regular-supplied by the Eli Lilly Company) was subjected to ultrasound emitted from a stacked array of the transducers of this invention, set to operate at 20 k Hz frequency and at 125 mW/sq. cm intensity level, for one, eight and eleven continuous hours of exposure. The insulin was placed in a plastic pouch within a hydrophone tank containing water and stirred during ultrasonic exposure. A control sample, which was untreated, but allowed to sit in the pouch and tank for one, eight and eleven hours, was also made. Samples were sent to Celsis Laboratories for independent analysis.

rats = experiment: Ultrasonically enhanced transdermal insulin delivery in live rats, blood glucose levels; assay type: in vivo, rat
Description: A four-element transducer was fabricated using four standard cymbal element transducers in one array system (Array #1) and four stacked cymbal element transducers in another system (Array #2). Array #1, the standard array, was set to operate at 20 k Hz frequency and at 125 mW/sq. cm intensity level. Array #2, the stacked array, was set to operate at 20 k Hz frequency and at 225 mW/sq. cm intensity level.
The transducer's arrays were fitted with a reservoir at the bottom end, into which Humulin Regular Insulin (supplied by Eli Lilly Company) was inserted. A total of […] of insulin was added, providing 100 units of insulin for the each test.
Two groups of test rates were assembled. The first group (Group-1) would receive the ultrasonic transmission while the second group would receive no ultrasound. In the second group (Group-2) the transducers arrays were loaded with insulin and the insulin was allowed to pool onto the surface of the rat skin, but there was no active ultrasonic transmission.
Next a frequency generator was employed to propagate the pulsed ultrasonic transmission, which used 100 millisecond pulses, with a pulse rate of one pulse per second, a duty cycle of 10%, for one hour.
Both Group-1 and Group-2 animals were tested for 120 minutes. Blood samples were taken from the animals according to standard investigative procedure every 30 minutes for the first hour and every hour after and analyzed for glucose levels and the presence of insulin. The Group-1 animals were exposed to ultrasound for 60 minutes, after which the ultrasound was terminated for the balance of the test period. Glucose levels in both groups were observed over the 120 minute period.

rat skin = details: rats, after ultrasonic transdermal insulin delivery with transducer array
Description: The belly of the rats were shaved to produce a skin area as close in configuration as would be present in the human situation. The transducer arrays were placed directly onto the rat skin surface and adhered to the skin by means of an adhesive.
A section of the skin where the transducer was placed is marked on the skin.

## Insulin [Humulin Regular]
[1]; control sample, no ultrasound, left in pouch and tank
  degradation of insulin or excipient solution (HPLC scan): no degradation
[1]; ultrasonically treated sample, eight hours of continuous exposure, 20 k Hz, 125 mW/sq. cm
  degradation of insulin or excipient solution (HPLC scan): no degradation
[1]; ultrasound from stacked array, 20 k Hz, 125 mW/sq. cm, one, eight and eleven continuous hours
  change in the insulin versus untreated insulin (independent analysis): no change
rats; Group-1 rats, insulin on skin with active ultrasound (20 k Hz), minute 30 and minute 60
  glucose level: significant reduction
rats; Group-1 rats, minute 60 to 120, ultrasound terminated at minute 60
  glucose level after termination of the ultrasound: rise
rats; Group-2 rats, insulin on skin, no ultrasound, minute 30 and minute 60
  glucose level: no lowering
rats; Group-2 rats, no ultrasound, minute 60 to 120
  glucose level: no decrease
rats; insulin placed on the skin or delivered via transdermal patch, without ultrasound
  permeation through the skin: will not permeate
Rat skin
  skin damage at test area: no skin damage
